Measured values as given in patent US20120195909A1 (BIONOVION HOLDING B V, published 2012).

T1: FLAG-hAPRIL (secreted form, supernatant of 293T cells transfected with pCR3-hAPRIL) (human, UniProt O75888 110-250, limits assumed)
T1 construct: Used as cell supernatant; also called FLAG-APRIL; soluble APRIL in conditioned medium; not shown: FLAG tag
T1 sequence (looked up): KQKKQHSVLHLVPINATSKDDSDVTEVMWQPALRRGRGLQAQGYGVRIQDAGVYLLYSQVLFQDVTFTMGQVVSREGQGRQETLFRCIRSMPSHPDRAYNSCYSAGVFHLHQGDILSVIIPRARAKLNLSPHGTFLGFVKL

T2: Recombinant human APRIL (R&D Systems) (human, UniProt O75888 105-250)
T2 construct: Bought protein; also called recombinant APRIL
T2 sequence (looked up): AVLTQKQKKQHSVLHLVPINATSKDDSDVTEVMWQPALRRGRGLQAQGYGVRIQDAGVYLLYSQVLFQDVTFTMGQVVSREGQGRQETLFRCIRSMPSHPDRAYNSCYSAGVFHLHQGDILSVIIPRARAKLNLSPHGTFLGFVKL

T3: mouse APRIL (mouse, UniProt Q9D777 96-241, limits assumed)
T3 sequence (looked up): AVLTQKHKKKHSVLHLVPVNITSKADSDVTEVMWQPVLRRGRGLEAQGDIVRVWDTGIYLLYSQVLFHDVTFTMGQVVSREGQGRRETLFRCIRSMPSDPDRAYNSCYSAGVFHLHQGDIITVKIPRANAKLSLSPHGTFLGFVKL


Key:
[1] = target: FLAG-hAPRIL (secreted form, supernatant of 293T cells transfected with pCR3-hAPRIL) (human) (UniProt O75888); test: ELISA, FLAG-hAPRIL captured by coated anti-FLAG polyclonal antibody
[2] = target: T1, FLAG-hAPRIL (secreted form, supernatant …); test: blocking ELISA, FLAG-APRIL supernatant pre-mixed with titrated antibody, binding to BCMA-Fc coated at 1 µg/ml detected with anti-Flag-HRP [right graph]
Procedure: (§1) To study whether the blocking characteristics of hAPRIL.01A and hAPRIL.03A are unique, all known commercially available anti-APRIL antibodies were tested for their ability to block the interaction of FLAG-hAPRIL to BCMA-Fc and TACI-Fc (FIGS. 3A and 3B). Blockade of receptor binding was studied using an ELISA. An ELISA plate was coated with 50 with 100 μl of BCMA-Fc at 1 μg/ml or with 100 μl of TACI-Fc at a concentration of 2 μg/ml in coating buffer and incubated overnight at 4° C. The plate was then washed with PBS/0.2% Tween and then incubated with for 1 hour at 37° C. with 100 μl PBS/5% BSA per well. The plate was then washed four times with PBS/0.2% Tween. In a separate plate APRIL monoclonal antibodies were pre-mixed with APRIL supernatant and incubated for 30 minutes on ice. Conditioned medium containing soluble APRIL was diluted 1 in 4 and mixed with an equal volume of PBS containing the antibodies titrated in doubling dilutions starting with 5 μg/ml. 100 μl of the pre-incubated mix was transferred to the ELISA plate and incubated for 2 hours at 37° C. The plate was then washed four times with PBS/0.2% Tween. Anti-Flag-HRP antibody was then diluted in PBS at a concentration of 1:1000 and then 100 μl of this added to each well and incubated for 1 hour at 37° C. […] The colour was allowed to develop and then the OD at 405 nm read on an ELISA plate reader. […]

[3] = target: T2, Recombinant human APRIL (R&D Systems); test: bio-light interferometry (Octet), antibody amine-coupled to the biosensor, APRIL at 1 and 2 µg/ml, 1:1 global fit; column printed as kobs
Procedure: (§2) To further characterize the binding characteristics of the antibodies, each was profiled using bio-light interferometry on the Octet system (ForteBio, Menlo Park, Calif.) to elucidate binding kinetics and calculate equilibrium binding constants. This assay was performed by coupling purified hAPRIL.01A and hAPRIL.03A antibodies to amine-reactive biosensors (Fortebio) using standard amine chemistry. Recombinant human APRIL (R&D Systems) binding to and dissociation from the biosensors was then observed at two concentrations, 1 and 2 μg/ml. Specifically, amine-reactive biosensors were pre-wetted by immersing them in wells containing 0.1M MES pH=5 for 2 minutes. The biosensors were then activated using a 0.1M NHS/0.4M EDC mixture for 5 minutes. hAPRIL.01A and hAPRIL.03A antibodies were coupled by immersing the biosensors in a solution of 5 μg/mL of the antibody for 18 minutes. The biosensor surface was quenched using a solution of 1M ethanolamine pH 8.5 for 7 minutes. Biosensors were equilibrated in PBS for 5 minutes. […] Dissociation was measured after transfer of the biosensors into PBS and monitoring of the interferometry signal for 20 minutes. The observed on and off rates (kobs and kd) were fit using a 1:1 binding global fit model, and the equilibrium binding constant KD was calculated (see Table 1).

[4] = target: T1, FLAG-hAPRIL (secreted form, supernatant …); test: blocking ELISA, FLAG-APRIL supernatant pre-mixed with titrated antibody, binding to BCMA-Fc coated at 1 µg/ml detected with anti-Flag-HRP [left graph]
Procedure: as §1

[5] = target: T1, FLAG-hAPRIL (secreted form, supernatant …); test: blocking ELISA, FLAG-APRIL supernatant pre-mixed with titrated antibody, binding to coated TACI-Fc (sheet: coated at 1 µg/ml) detected with anti-Flag-HRP [right graph]
Procedure: (§3) To study whether the blocking characteristics of hAPRIL.01A and hAPRIL.03A are unique, all known commercially available anti-APRIL antibodies were tested for their ability to block the interaction of FLAG-hAPRIL to BCMA-Fc and TACI-Fc (FIGS. 3A and 3B). Blockade of receptor binding was studied using an ELISA. […] The plate was then washed with PBS/0.2% Tween and then incubated with for 1 hour at 37° C. with 100 μl PBS/5% BSA per well. The plate was then washed four times with PBS/0.2% Tween. In a separate plate APRIL monoclonal antibodies were pre-mixed with APRIL supernatant and incubated for 30 minutes on ice. Conditioned medium containing soluble APRIL was diluted 1 in 4 and mixed with an equal volume of PBS containing the antibodies titrated in doubling dilutions starting with 5 μg/ml. 100 μl of the pre-incubated mix was transferred to the ELISA plate and incubated for 2 hours at 37° C. The plate was then washed four times with PBS/0.2% Tween. Anti-Flag-HRP antibody was then diluted in PBS at a concentration of 1:1000 and then 100 μl of this added to each well and incubated for 1 hour at 37° C. The plate was then washed four times with PBS/0.2% Tween and then 100 μl of ABTS added to each well (the ABTS was diluted to the ratio 10 ml of reagent plus 5 μl of H₂O₂ made immediately before addition). The colour was allowed to develop and then the OD at 405 nm read on an ELISA plate reader. […]

[6] = target: T1, FLAG-hAPRIL (secreted form, supernatant …); test: blocking ELISA, FLAG-hAPRIL pre-incubated with titrated antibody, binding to coated TACI-Fc detected with anti-FLAG
Procedure: (§4) Blocking abilities of hAPRIL.01A and hAPRIL.03A were confirmed using purified antibodies. Maxisorp 96-well plates were coated with either BCMA-Fc (R&D Systems) or TACI-Fc (R&D Systems) at 50 ng/well overnight at 4° C. and blocked with 10% Goat serum/PBST for 1 hour at RT. FLAG-hAPRIL containing supernatants were pre-incubated with hAPRIL.01A, hAPRIL.03A, and Aprily-5 antibodies (10 μg/ml high test with 10-fold dilutions in triplicates) for 1 h at RT. Plates were washed with PBST 3 times, and bound FLAG-hAPRIL was detected by incubation with 1 μg/ml anti-FLAG BioM2-biotin antibody (Sigma) and 1:2,000 Streptavidin-HRP (Southern Biotechnology) for 1 hour each at RT. After the final PBST wash, APRIL-bound BCMA-Fc was visualized with OptiEIA TMB substrate (BD Biosciences). […] The concentration of half-maximum inhibition (IC₅₀) was determined for hAPRIL.01A as 1.2 and 0.4 nM for BCMA-Fc and TACI-Fc, respectively. The IC₅₀ for hAPRIL.03A to TACI-Fc was determined as 1.3 nM.

[7] = target: T3, mouse APRIL; test: BIAcore
[8] = target: T2, Recombinant human APRIL (R&D Systems); test: bio-light interferometry (Octet), antibody amine-coupled to the biosensor, APRIL at 1 and 2 µg/ml, 1:1 global fit
Procedure: as §2

[9] = target: T1, FLAG-hAPRIL (secreted form, supernatant …); test: blocking ELISA: antibody pre-incubated with FLAG-hAPRIL, binding to coated BCMA-Fc (competitor) detected
Procedure: as §4

[10] = target: T1, FLAG-hAPRIL (secreted form, supernatant …); test: blocking ELISA: antibody pre-incubated with FLAG-hAPRIL, binding to coated TACI-Fc (competitor) detected
[11] = target: T1, FLAG-hAPRIL (secreted form, supernatant …); test: ELISA, FLAG-hAPRIL captured by coated anti-FLAG polyclonal antibody
Procedure: Protein-based ELISA experiments using purified hAPRIL.01A and hAPRIL.03A antibodies were performed to determine apparent binding affinities (reported as EC₅₀ values). Binding was compared to mouse anti-hAPRIL IgG1 Aprily-5 (Alexis). Maxisorp 96-well immunoplates (Nunc) were coated with either rabbit anti-FLAG polyclonal antibody (Sigma) or BCMA-Fc (R&D Systems) at 50 ng/well in PBS overnight at 4° C. and blocked with 10% Goat serum/PBST for 1 hour at RT. Plates were washed with PBST 3 times and incubated with supernatant (1:4 in PBS) containing FLAG-hAPRIL for 1 hour at RT. Plates were again washed with PBST 3 times and incubated with hAPRIL.01A, hAPRIL.03A, and Aprily-5 antibodies (10 μg/ml high test with 10-fold dilutions in triplicates) for 1 h at RT. After three washes with PBST, bound antibodies were detected with goat anti-mouse IgG-HRP (1:2,000) (Southern Biotechnology) for 1 hour at RT. Plate was washed three times with PBST, and APRIL-reactivity was visualized with OptiEIA TMB substrate (Becton Dickinson). The concentration for half-maximal binding is reported as a measure of relative binding affinity. When FLAG-hAPRIL was captured by the anti-FLAG antibody (FIG. 2A), EC₅₀ values for hAPRIL.01A, hAPRIL.03A and Aprily-5 were calculated as 2.2, 1.4, and 1.7 nM, respectively. […] In contrast, binding of hAPRIL.03A to the APRIL-BCMA complex was observed.

[12] = target: T1, FLAG-hAPRIL (secreted form, supernatant …); test: blocking ELISA, FLAG-APRIL supernatant pre-mixed with titrated antibody, binding to coated TACI-Fc (sheet: coated at 1 µg/ml) detected with anti-Flag-HRP [left graph]
Procedure: as §3

| EC50 [1] [nM] | IC50 (read off the curve) [2] [µg/mL] | kon [3] [M⁻¹ s⁻¹] | IC50 (read off the curve) [4] [µg/mL] | IC50 (read off the curve) [5] [µg/mL] | IC50 (read off the curve) [6] [µg/mL] | binding result [7] | Kd [8] [nM] | koff [8] [s⁻¹] | IC50 [9] [nM] | IC50 [10] [nM] | EC50 [11] [nM] | IC50 (read off the curve) [12] [µg/mL] | Molecule |
| --- | --- | --- | --- | --- | --- | --- | --- | --- | --- | --- | --- | --- | --- |
| 1.7 | – | – | – | – | – | – | – | – | – | – | – | – | mouse anti-hAPRIL IgG1 Aprily-5 (Alexis) (antibody) |
| – | ~0.9 | 48900 | ~0.8 | ~0.7 | ~0.2 | no binding | 0.753 | 3.69e-05 | 1.2 | 0.4 | 2.2 | ~0.7 | hAPRIL.01A (antibody, IgG1, V domains shown, Mouse antibody from a hybridoma, IgG1, kappa) VH: EVQLQQSGPELVKPGASVKMSCKASGYTFTSYVMHWVKQKPGQGLEWIGYINPYNDAPKYNEKFKGKATVTSDKSSGTAYMELSSLTSEDSAVYYCARGLGYALYYAMDYWGQGTSVTVSS VL: DIVMTQSQKFKSTSVGDRVSVTCKASQNVGNNVAWYQQKAGQSPKALISSASNRDSGVPDRFTGSGSGTDFTLTISNVQSEDLADYFCQQYNIYPFTFGSGTELEIK |
